# Measurements reported in the Immune Epitope Database (IEDB).
# pKd: −log10 of the molar value.
# Tests used:
# Test in all cases: IEDB peptide-MHC binding, purified MHC/direct/fluorescence; filed as Kd, often an IC50 or EC50 that approximates it; ≥ and ≤ were set here for values at or beyond the usual limits of such assays
# [1] = molecular target: HLA-B*46:01
# [2] = molecular target: HLA-B*15:09
# [3] = molecular target: HLA-A*11:01
# [4] = molecular target: HLA-B*07:02
# [5] = molecular target: HLA-A*03:01
# [6] = molecular target: HLA-B*40:01
# [7] = molecular target: HLA-A*31:01
# [8] = molecular target: HLA-A*69:01
# [9] = molecular target: HLA-B*08:01
# [10] = molecular target: HLA-B*15:01
# [11] = molecular target: HLA-A*26:01
# [12] = molecular target: HLA-B*58:01
# [13] = molecular target: HLA-B*27:05
# [14] = molecular target: HLA-A*02:01
# [15] = molecular target: HLA-A*01:01
# [16] = molecular target: HLA-A*24:02
# [17] = molecular target: HLA-B*44:02
# [18] = molecular target: HLA-B*73:01
# [19] = molecular target: HLA-A*30:01
# [20] = molecular target: HLA-B*48:01; settings: source organism: Brucella suis
# [21] = molecular target: HLA-C*05:01
# [22] = molecular target: HLA-A*24:03
# [23] = molecular target: HLA-C*12:03; settings: source organism: Toxoplasma gondii ME49
# [24] = molecular target: HLA-B*57:01
# [25] = molecular target: HLA-A*02:03
# [26] = molecular target: HLA-A*68:02; settings: source organism: Salmonella enterica subsp. enterica serovar Berta
# [27] = molecular target: HLA-B*15:17; settings: source organism: Salmonella enterica subsp. enterica serovar Berta
# [28] = molecular target: HLA-A*29:02; settings: source organism: Salmonella enterica subsp. enterica serovar Berta
# [29] = molecular target: HLA-A*23:01; settings: source organism: Salmonella enterica subsp. enterica serovar Berta
# [30] = molecular target: HLA-B*27:03
# [31] = molecular target: HLA-A*02:19
# [32] = molecular target: HLA-B*18:01
# [33] = molecular target: HLA-A*02:16
# [34] = molecular target: HLA-A*02:11
# [35] = molecular target: HLA-B*51:01
# [36] = molecular target: HLA-A*02:12
# [37] = molecular target: HLA-B*08:02
# [38] = molecular target: HLA-B*39:01; settings: source organism: Vibrio parahaemolyticus AQ3810
# [39] = source organism: Influenza A virus (A/duck/Mongolia/47/2001(H7N1))
# [40] = source organism: Influenza A virus(A/swine/Henan/3/2004(H9N2))
# [41] = source organism: Salmonella enterica
# [42] = source organism: Salmonella enterica subsp. enterica serovar Typhimurium
# [43] = source organism: Salmonella enterica subsp. enterica serovar Typhimurium str. LT2
# [44] = source organism: Toxoplasma gondii
# [45] = source organism: Salmonella enterica subsp. enterica serovar Berta
# [46] = source organism: Vibrio parahaemolyticus
# [47] = source organism: Vibrio parahaemolyticus AQ3810
# [48] = source organism: Giardia lamblia ATCC 50803
sequence,measurement,setting,value
NESGRLIDF,pKd,[1]; [39],≤ 4.70
same,pKd,[2]; [40],≤ 4.70
same,pKd,[3]; [39],≤ 4.70
same,pKd,[4]; [39],≤ 4.70
same,pKd,[5]; [39],≤ 4.70
same,pKd,[6]; source organism: Influenza A virus (A/Puerto Rico/8/34/Mount Sinai(H1N1)),≤ 5.30
same,pKd,[7]; [39],≤ 4.70
same,pKd,[8]; [39],≤ 4.70
same,pKd,[9]; [39],≤ 4.70
same,pKd,[10]; [39],≤ 4.70
same,pKd,[11]; [40],≤ 4.70
same,pKd,[12]; [39],≤ 4.70
same,pKd,[13]; [39],≤ 4.70
same,pKd,[14]; [39],≤ 4.70
same,pKd,[15]; [39],≤ 4.70
same,pKd,[16]; [39],≤ 4.70
RKAGVNQAK,pKd,[4]; [41],≤ 4.70
same,pKd,[5]; [42],≤ 4.70
same,pKd,[6]; [41],≤ 4.70
same,pKd,[7]; [41],≤ 4.70
same,pKd,[8]; [41],≤ 4.70
same,pKd,[9]; [41],≤ 4.70
same,pKd,[17]; [41],≤ 4.70
same,pKd,[18]; [43],≤ 4.70
same,pKd,[19]; [42],4.89
same,pKd,[10]; [41],≤ 4.70
same,pKd,[11]; [41],≤ 4.70
same,pKd,[12]; [41],≤ 4.70
same,pKd,[13]; [42],6.65
same,pKd,[14]; [41],≤ 4.70
same,pKd,[15]; [41],≤ 4.70
RRTKLPLTK,pKd,[20],≤ 4.70
same,pKd,[18]; source organism: Brucella suis 1330,≤ 4.70
same,pKd,[13]; source organism: Brucella suis,7.10
SLDQSVVEL,pKd,[21]; source organism: Chlamydia trachomatis,7.29
QYDVPMVSF,pKd,[22]; source organism: Mycobacterium tuberculosis,7.74
same,pKd,[21]; source organism: Mycobacterium tuberculosis H37Rv,≤ 4.70
RATSHVPEF,pKd,[23],6.83
same,pKd,[12]; [44],≤ 4.70
same,pKd,[24]; [44],≤ 4.70
same,pKd,[21]; source organism: Toxoplasma gondii ME49,≤ 4.70
HQDDGQPRL,pKd,[1]; [45],≤ 4.70
same,pKd,[25]; [45],≤ 4.70
same,pKd,[26],≤ 4.70
same,pKd,[5]; [45],≤ 4.70
same,pKd,[27],≤ 4.70
same,pKd,[22]; [45],≤ 4.70
same,pKd,[8]; [45],≤ 4.70
same,pKd,[28],≤ 4.70
same,pKd,[29],≤ 4.70
same,pKd,[30]; [45],≤ 4.70
same,pKd,[10]; [45],≤ 4.70
same,pKd,[31]; [45],≤ 4.70
same,pKd,[11]; [45],≤ 4.70
same,pKd,[32]; [45],≤ 4.70
same,pKd,[33]; [45],≤ 4.70
same,pKd,[14]; [45],≤ 4.70
same,pKd,[34]; [45],≤ 4.70
same,pKd,[35]; [45],≤ 4.70
same,pKd,[24]; [45],≤ 4.70
same,pKd,[36]; [45],≤ 4.70
GRNSRFPDK,pKd,[4]; [46],≤ 4.70
same,pKd,[5]; [46],≤ 4.70
same,pKd,[6]; [46],≤ 4.70
same,pKd,[7]; [46],≤ 4.70
same,pKd,[8]; [46],≤ 4.70
same,pKd,[9]; [46],≤ 4.70
same,pKd,[17]; [46],≤ 4.70
same,pKd,[18]; [47],≤ 4.70
same,pKd,[19]; [46],≤ 5.30
same,pKd,[10]; [46],≤ 4.70
same,pKd,[11]; [46],≤ 4.70
same,pKd,[12]; [46],≤ 4.70
same,pKd,[13]; [46],5.98
same,pKd,[14]; [46],≤ 4.70
same,pKd,[15]; [46],≤ 4.70
YSDIFNNVL,pKd,[3]; [42],≤ 4.70
same,pKd,[37]; [43],≤ 4.70
same,pKd,[4]; [42],≤ 4.70
same,pKd,[5]; [42],≤ 4.70
same,pKd,[6]; [42],6.40
same,pKd,[7]; [42],≤ 4.70
same,pKd,[9]; [43],≤ 4.70
same,pKd,[17]; [42],≤ 4.70
same,pKd,[10]; [42],≤ 4.70
same,pKd,[11]; [43],≤ 4.70
same,pKd,[12]; [42],≤ 4.70
same,pKd,[13]; [42],≤ 4.70
same,pKd,[15]; [42],7.12
same,pKd,[21]; [43],8.30
same,pKd,[16]; [42],≤ 4.70
EPFLVQFWI,pKd,[1]; [47],≤ 4.70
same,pKd,[25]; [47],≤ 4.70
same,pKd,[5]; [47],≤ 4.70
same,pKd,[22]; [47],≤ 4.70
same,pKd,[30]; [47],≤ 4.70
same,pKd,[38],≤ 4.70
same,pKd,[10]; [47],≤ 4.70
same,pKd,[31]; [47],≤ 4.70
same,pKd,[11]; [47],≤ 4.70
same,pKd,[32]; [47],≤ 4.70
same,pKd,[33]; [47],≤ 4.70
same,pKd,[14]; [47],≤ 4.70
same,pKd,[34]; [47],≤ 4.70
same,pKd,[35]; [47],6.71
same,pKd,[24]; [47],≤ 4.70
same,pKd,[36]; [47],≤ 4.70
DEKPKVMEG,pKd,[2]; [48],≤ 4.70
same,pKd,[3]; [48],≤ 4.70
same,pKd,[37]; [48],≤ 4.70
same,pKd,[4]; [48],≤ 4.70
same,pKd,[5]; [48],≤ 4.70
same,pKd,[6]; [48],≤ 4.70
same,pKd,[7]; [48],≤ 4.70
same,pKd,[8]; [48],≤ 4.70
same,pKd,[17]; [48],≤ 4.70
same,pKd,[10]; [48],≤ 4.70
same,pKd,[12]; [48],≤ 4.70
same,pKd,[13]; [48],≤ 4.70
same,pKd,[14]; [48],≤ 4.70
same,pKd,[15]; [48],≤ 4.70
same,pKd,[16]; [48],≤ 4.70
